B1: VapB1 antitoxin from Caulobacter crescentus CB15, full length, seleno-methionine substituted (natural protein, UniProt Q9AC34 1-79, looked up)
chain: MARATGKTFRSGNSEAVRLPRDLAFGADVELTLIRSGDVLTIYPSKGSIADLVATLNQMPRPDSVEIRDEDLFPERPGL
modifications: seleno-methionine in place of methionine
B2: VapC1 toxin from Caulobacter crescentus CB15, full length, seleno-methionine substituted (natural protein)
chain: MAYVLDTNVAIHLRDGDPEVTTRVTALNGAILLSIISRVELEGGVYREAAQAGLRRSRLDVMLKVLPVLDFDGAAADEYRRIVESAGYSRRKVVDRMIAAQALAHRATFVTFNADDFRDIPGLSLLAW
modifications: seleno-methionine in place of methionine

Target: the molecule itself
Assay: crystal structure

Protein	stoichiometry N
B1	2
B2	2

From PMC5389673 (Nucleic Acids Research, 2016)
